These are literature values, as cited in publication PMC6063947.

This data set addresses Asp61 (UniProt position 61, VMGLVDAIPMI). Description: NMR.

Consider “ATP synthase subunit c (F0 sector, proteolipid) (Escherichia coli)”, for which the pKa was 7.1.

By pKa is commonly meant the negative logarithm of the acid dissociation constant.
